Here are results for two molecules from patent US20120058906A1 (published 2012).

The target of experiment [1] is T1, rHuman IGF-1 sR (IGF-1 sR), CF (R&D Systems Cat#391-GR) (human, UniProt P08069 31-932).
T1 construct: Bought soluble receptor; also called insulin-like growth factor-1 soluble receptor; IGF-R1
In words: ECL (MSD Multi-Spot) titration, antigen spotted on plate; Fab 0.48 µM; blank spot 2945.

Experiment [2] deals with T1, rHuman IGF-1 sR (IGF-1 sR), CF (R&D …). Nature of the experiment: ECL (MSD Multi-Spot) titration, antigen spotted on plate; Fab 0.0192 µM; blank spot 751.
For experiment [3] the target is unchanged. Nature of the experiment: ECL (MSD Multi-Spot) titration, antigen spotted on plate; Fab 0.096 µM; blank spot 917.
Experiment [4] addresses T2, Recombinant Human DLL4 (R&D Systems Cat#1506-D4/CF) (human, UniProt Q9NR61 27-524).
T2 construct: Bought recombinant protein; also called delta-like protein 4
In words: ECL (MSD Multi-Spot) titration, antigen spotted on plate; Fab 0.1275 µM; blank spot 530.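 Further: blank spot per well as comparator with Hit at signal to blank ratio of 4 or more.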

The target in experiment [5] is T3, rHuman ErbB2/Fc Chimera, CF (R&D Systems Cat#1129-ER) (human, UniProt P04626 23-652).
T3 construct: Bought Fc chimera; also called HER2/neu; human epidermal growth factor 2 receptor; Fc part of the bought chimera not given
Described as above.

The target of experiment [6] is T4, rHuman HGF R/c-MET/Fc Chimera, CF (R&D Systems Cat#358-MT/CF) (human, UniProt P08581 25-932).
T4 construct: Bought Fc chimera; also called HGF R/Fc; hepatocyte growth factor receptor; Fc part of the bought chimera not given
The description is as above.

Experiment [7] concerns the target T1, rHuman IGF-1 sR (IGF-1 sR), CF (R&D …). Described as above.
In experiment [8] the target is T5, rHuman CD44/Fc Chimera, CF (R&D Systems Cat#3660-CD) (human, UniProt P16070 21-220).
T5 construct: Bought Fc chimera; Fc part of the bought chimera not given
Described as above.

Experiment [9] addresses T2, Recombinant Human DLL4 (R&D Systems …). In words: ECL (MSD Multi-Spot) titration, antigen spotted on plate; Fab 0.00797 µM; blank spot 364.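 Further: blank spot per well as comparator with Hit at signal to blank ratio of 4 or more.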
For experiment [10], the target named is T3, rHuman ErbB2/Fc Chimera, CF (R&D …). The description is as above.
Experiment [11] deals with T4, rHuman HGF R/c-MET/Fc Chimera, CF (R&D …). The experiment is described as above.
Experiment [12] addresses T1, rHuman IGF-1 sR (IGF-1 sR), CF (R&D …). Described as above.
The target in experiment [13] is T5, rHuman CD44/Fc Chimera, CF (R&D Systems …). Described as above.
In experiment [14] the target is T2, Recombinant Human DLL4 (R&D Systems …). In words: ECL (MSD Multi-Spot) titration, antigen spotted on plate; Fab 0.03188 µM; blank spot 536.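 Further: blank spot per well as comparator with Hit at signal to blank ratio of 4 or more.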
Experiment [15] addresses T3, rHuman ErbB2/Fc Chimera, CF (R&D …). Described as above.
The target in experiment [16] is T4, rHuman HGF R/c-MET/Fc Chimera, CF (R&D …). The experiment is described as above.
Experiment [17] has as its target T1, rHuman IGF-1 sR (IGF-1 sR), CF (R&D …). The description is as above.
For experiment [18], the target named is T5, rHuman CD44/Fc Chimera, CF (R&D Systems …). Described as above.
For experiment [19], the target named is T2, Recombinant Human DLL4 (R&D Systems …). Nature of the experiment: ECL (MSD Multi-Spot) titration, antigen spotted on plate; Fab 0.51 µM; blank spot 1096.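 Further: blank spot per well as comparator with Hit at signal to blank ratio of 4 or more.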
Experiment [20] concerns the target T3, rHuman ErbB2/Fc Chimera, CF (R&D …). Described as above.
In experiment [21] the target is T4, rHuman HGF R/c-MET/Fc Chimera, CF (R&D …). The experiment is described as above.
For experiment [22], the target named is T1, rHuman IGF-1 sR (IGF-1 sR), CF (R&D …). The description is as above.
For experiment [23], the target named is T5, rHuman CD44/Fc Chimera, CF (R&D Systems …). Described as above.

B1: Fab VH1-46_IGHD6-13*01_IGHJ4*01 & A27_IGKJ1*01 (Fab, V domains shown)
VH: QVQLVQSGAEVKKPGASVKVSCKASGYTFTSYYMHWVRQAPGQGLEWMGIINPSGGSTSYAQKFQGRVTMTRDTSTSTVYMELSSLRSEDTAVYYCAREGYSSSWYDYFDYWGQGTLVTVSS
VL: not shown
notes: Made as a Fab in E. coli: VH joined to the CH1 of Plasmid A (Flag and His tags), VL joined to the kappa constant region of Plasmid C
On to B1, for which the ECL signal in [1] worked out at 8930; in experiment [2] it was 1830; in experiment [3], 2450.

B2: Fab VH4-34_IGHD7-27*01_IGHJ4*01 & L5_IGKJ1*01 (Fab, V domains shown)
VH: QVQLQQWGAGLLKPSETLSLTCAVYGGSFSGYYWSWIRQPPGKGLEWIGEINHSGSTNYNPSLKSRVTISVDTSKNQFSLKLSSVTAADTAVYYCARANWGDYFDYWGQGTLVTVSS
VL: DIQMTQSPSSVSASVGDRVTITCRASQGISSWLAWYQQKPGKAPKLLIYAASSLQSGVPSRFSGSGSGTDFTLTISSLQPEDFATYYCQQANSFPPWTFGQGTKVEIKR
notes: as for B1
Turning to B2, the ECL signal was found to be 2380 in experiment [4]; 857 in [5]; 853 in experiment [6]; 1040 in experiment [7]; 926 in [8]; 872 in experiment [9]. Besides, the ECL signal in [10] turned out to be 493; in experiment [11], 419; in experiment [12], 564; in experiment [13] it was 490; in experiment [14] it was 1280; in experiment [15], 584. Moreover, the ECL signal in experiment [16] was found to be 693; in [17], 765; in [18] it was 653; in experiment [19] it was 5180; in experiment [20], 1530; in [21], 1990. Also, the ECL signal in [22] was found to be 2240; in experiment [23], 2010.
